Source: patent publication US10006080B2, “High-selectivity contact activation inhibitor based on infestin-4” (OBSCHESTVO S OGRANICHENNOY OTVETSTVENNOSTYU …, priority 2013, dated 2018)
Each block holds one molecule with its values, some of them ahead of it. No end group written: not given here.

How the values were obtained:
fXa [1] = molecular target: fXa (Homo sapiens, UniProt P00742); conditions: Campos et al. 2004, FEBS Lett. 577:512-516; read-out: inhibition constant Ki against fXa; cited from earlier work
Sequence of fXa (Homo sapiens, UniProt P00742) (P00742 235-488 limits assumed): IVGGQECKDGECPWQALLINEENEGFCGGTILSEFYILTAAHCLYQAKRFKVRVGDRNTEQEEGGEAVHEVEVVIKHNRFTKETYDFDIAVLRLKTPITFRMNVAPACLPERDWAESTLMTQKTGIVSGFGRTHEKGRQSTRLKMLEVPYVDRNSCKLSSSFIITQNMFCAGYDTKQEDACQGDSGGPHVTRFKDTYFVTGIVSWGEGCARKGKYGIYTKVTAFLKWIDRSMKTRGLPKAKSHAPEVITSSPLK
Sequence of fXa (Homo sapiens, UniProt P00742) (P00742 41-179 partner limits assumed): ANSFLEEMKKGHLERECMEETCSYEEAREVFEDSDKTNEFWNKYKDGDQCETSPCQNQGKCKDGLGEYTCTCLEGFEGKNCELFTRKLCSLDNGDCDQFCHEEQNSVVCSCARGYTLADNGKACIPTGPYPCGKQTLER

fXIIa = conditions: without affecting hemostasis parameters; cited from earlier work
[2] = system: contact-activated coagulation; assay: APTT test in platelet free plasma of a healthy donor (kaolin-cephalin activation); format: biochemical, human; conditions: 10 μM inhibitor in PFP; 45 sec without inhibitor
Method: The assessment of activity of the polypeptide comprising the sequence of an infestin-4 mutant MutB by its inhibition of the contact-activated coagulation shall be considered further with a reference to FIG. 1. Native infestin-4 and mutants MutB and Mut15 were added into 3 separate samples of platelet free plasma (PFP) of a healthy donor, with subsequent measuring time of contact-activated clotting in the APTT test.
Blood plasma from healthy donors was processed according to standard protocols of blood collection for coagulation assays (Collection, Transport, and Processing of Blood Specimens for Testing Plasma-Based Coagulation Assays and Molecular Hemostasis Assays; Approved Guideline Fifth Edition by Clinical and Laboratory Standards Institute (CLSI) H21-A5 Vol. 28 No. 5). 0.38% sodium citrate was added into blood to block the calcium ions.
The APTT test was administered using the reagent kits “Coagulo-test” (Scientific-production association Renam, Moscow, Russia) and different concentrations of the following contact activation inhibitors: native infestin-4, MutB, and Mut15. To do that, 50 microliters of blood plasma from a healthy donor were mixed with 5.6 microliters of a 10× solution of different inhibitor concentrations and incubated for 15 minutes at 37° C. Then, according to the “Coagulo-test” manual, 25 microliters of the mixture were transferred into the cuvette of the coagulometer Helena-C2, with addition of 25 microliters of kaolin-cephalin mixture activating fXII in blood plasma. After incubation at 37° C. for 3 minutes, 25 microliters of the calcium chloride solution in the initial concentration of 25 mM was added, and the time of fibrin clot formation in the coagulometer cuvette was determined photometrically.
APTT dependences on concentrations of native infestin-4, MutB and Mut15 obtained in the same way as in Example 1, are shown on FIG. 1.

fXIa = molecular target: T1, fXIa (Homo sapiens, UniProt P03951); assay: Chromogenic test of protease inhibition in buffer, fXIa (substrate S-2366); format: biochemical; conditions: buffer solution, summary of Table 2
T1 construct: factor XI into its active form, factor XIa (fXIa)
Method: In order to assess selectivity of the fXIIa inhibition by the polypeptide comprising the sequence of the infestin-4 mutant MutB, its inhibitory activity in buffer solution against the purified coagulation factors was determined. The polypeptide's activity was compared with the known fXIIa inhibitors: CTI, infestin-4, infestin-4-based mutant Mut15, LCTI-III. […] The standard deviation amounted to about 50% of the average value; each value was measured by performing 2-3 repeats.
(§1) To determine the inhibition activity of such proteins as MutB, CTI, Inf4, Mut15, and LCTI-III as related to different coagulation proteases in a buffer, the chromogenic test was used: the mixture of protease and inhibitor was incubated in the wells of the plate for 15 minutes at 37° C., after which the chromogenic substrate solution was added to the mixture, and the protease activity was measured as the rate of chromogenic product formation at 37° C.
(§2) Chromogenic substrates included a p-nitroanilide group cleaved by the corresponding proteases. After cleavage of the p-nitroanilide group from the substrate molecule, the group absorption spectrum changes, and the change of concentration of such product within time can be detected at the light wavelength of 405 nm using a plate spectrophotometer. To build a dependence curve of the protease activity from the inhibitor concentration, different inhibitor concentrations were added into several samples with the same protease concentration. After that, the inhibitor concentration able to decrease the protease activity by 50% (IC50) was determined. The inhibition constant Ki was calculated using the Cheng-Prusoff equation (Ki=IC50/(1+S/KM)), where S is the initial substrate concentration, KM is the Michaelis-Menten constant of the substrate to the protease.
Native infestin-4 and its mutants MutB and Mut15 used here were fusion proteins with thioredoxin I E. coli containing polyhisticline clusters. […]

factor XIIa = molecular target: T2, factor XIIa (UniProt P00748 20-615, limits assumed); assay: chromogenic test (S-2302), IC50 converted by Cheng-Prusoff
T2 construct: also called fXIIa
T2 sequence (looked up): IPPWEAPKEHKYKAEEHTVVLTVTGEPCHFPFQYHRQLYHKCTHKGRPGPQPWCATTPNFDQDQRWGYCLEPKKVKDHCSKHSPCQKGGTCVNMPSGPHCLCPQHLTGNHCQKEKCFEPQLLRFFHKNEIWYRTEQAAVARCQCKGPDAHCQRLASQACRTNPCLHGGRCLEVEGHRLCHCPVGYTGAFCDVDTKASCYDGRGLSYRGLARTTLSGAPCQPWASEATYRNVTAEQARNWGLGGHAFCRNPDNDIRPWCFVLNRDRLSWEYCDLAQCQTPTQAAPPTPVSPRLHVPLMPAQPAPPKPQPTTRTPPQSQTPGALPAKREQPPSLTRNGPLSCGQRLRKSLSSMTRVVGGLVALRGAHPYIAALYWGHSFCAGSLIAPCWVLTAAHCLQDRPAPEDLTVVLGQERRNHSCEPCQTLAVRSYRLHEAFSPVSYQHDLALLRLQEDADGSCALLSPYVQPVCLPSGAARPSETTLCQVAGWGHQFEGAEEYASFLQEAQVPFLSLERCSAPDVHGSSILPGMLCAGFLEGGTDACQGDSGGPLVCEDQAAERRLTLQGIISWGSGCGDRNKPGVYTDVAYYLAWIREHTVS
Method: as §1, §2

factor XIa = molecular target: T3, factor XIa (UniProt P03951 19-625); assay: chromogenic test (S-2366), IC50 converted by Cheng-Prusoff
T3 construct: also called fXIa
Method: as §1, §2

fXa [3] = molecular target: T4, fXa (UniProt P00742 41-179; P00742 235-488, limits assumed); assay: chromogenic test (S-2765), IC50 converted by Cheng-Prusoff
T4 construct: also called factor Xa
T4 sequence (P00742 41-179 limits assumed, form in doubt, chain 1 of 2): as the sequence (P00742 41-179 partner limits assumed) above
T4 sequence (P00742 235-488 limits assumed, form in doubt, chain 2 of 2): as the sequence (P00742 235-488 limits assumed) above
Method: as §1, §2

inhibition of fXIa (in words) (fXIa): do not inhibit
Molecule: Inf4: domain 4 of the protein infestin from the midgut of Triatoma infestans, Kazal-type fXIIa inhibitor; PDB 2ERW (EVRNPCACFRNYVPVCGSDGKTYGNPCMLNCAAQTKVPGLKLVHEGRCQRSNVEQF; left off: large carriers; small tags and cut ends) [reference compound]
Ki (fXa [1]): 53 nM | effect in the thrombosis model in vivo (fXIIa): prevents vascular occlusion | APTT [2]: 120 s

Ki (factor XIIa): 1 nM
B2: infestin-4 mutant MutB, fusion protein with thioredoxin I E. coli containing polyhistidine clusters (other, not shown: large carriers; small tags and cut ends)
chain: EVRNPCACTRNFVAVCGSDGKTYGNPCMLNCAAQTKVPGLKLVHEGRCQRSNVEQF
modifications: cysteine pairing not given here; also: fusion with thioredoxin I and polyhistidine clusters, not given here

More lines, now with the values behind:

Molecule: RICPRILMECSSDSDCLAECICLENGFCG (Chemically synthesised) [Luffa cylindrica trypsin inhibitor, LCTI-III]
Ki (factor XIIa): 15 nM | Ki (factor XIa): 30000 nM

B1: native infestin-4, fusion protein with thioredoxin I E. coli containing polyhistidine clusters (other)
chain: EVRNPCACFRNYVPVCGSDGKTYGNPCMLNCAAQTKVPGLKLVHEGRCQRSNVEQF
notes: It says MutB differs from it at positions 9, 12 and 14 only; also called Inf4; not shown: thioredoxin I of E. coli, fusion partner; polyhistidine clusters
Ki (factor XIIa): 1 nM | Ki (fXa [3]): 2000 nM
